Assay results from patent publication US8658382B2, “Proteins with pteridine glycosyltransferase activity and analysis method using the same” (Inje University Industry-Academic Cooperation Foundation, priority 2008, dated 2014).

Key:
[1] = BGluT-catalysed glucosylation of tetrahydrobiopterin (establishing reaction conditions); assay type: biochemical
Method: Unless otherwise specified, the following standard reaction conditions were used for the determination of tetrahydrobiopterin and its oxidized forms. Reactions were carried out in a final volume of 100 μl, which consisted of 50 mM Tris-HCl (pH 7.5), 10 mM MgCl2, 0.05% ascorbic acid, 500 μM UDP-glucose, 1 μg of BGluT, and an aliquot of pteridines or tissue extracts. The reaction mixture was incubated for 20 minutes at 37° C. and then mixed with 30 μl of acidic iodine solution (2% KIM % I2 in 1 N HCl). After 1 hour in the dark at room temperature, the oxidized mixture was centrifuged. […]
The HPLC system consisted of Gilson 321 pump, Gilson 234 autoinjector, a fluorescence detector (Schimadzu RF-10AXL), and a system software (Gilson Unipoint version 5.11). […] Pteridines were eluted isocratically at a flow rate of 1.2 ml/min and monitored at 350/450 nm (excitation/emission). Pteridine peaks were identified and quantified using authentic pteridines, which were purchased from Dr. B. Schirck's Lab (Jona, Switzerland). […]
The results of FIG. 1 illustrate that a selective and quantitative analysis of tetrahydrobiopterin is possible using BGluT. In order to validate the possibility quantitatively, various studies were carried out to establish a standard reaction condition suitable for analysis of biological samples. […]

[2] = Storage stability of purified recombinant BGluT; assay type: physicochemical; conditions: in 20 mM Tris-HCl (pH 7.5), 30% (v/v) glycerol, aliquots at −70° C.
From the text: According to the present inventor's article (Y. K. Choi, Y. K. Hwang, Y. S. Park, Molecular cloning and disruption of a novel gene encoding UDP-glucose:tetrahydrobiopterin alpha-glucosyltransferase gene in Synechococcus sp. PCC 7942. FEBS Lett. 502 (2001) 73-78), the BGluT gene cloned in pET-28a was overexpressed in Escherichia coli strain BL21(DE3). The recombinant BGluT was homogeneously purified with Ni-NTA column (Qiagen). Briefly, the transformed E. coli was induced to overexpress the protein with 0.3 mM isopropyl thiogalactoside (IPTG). After being incubated at 37° C. for 3 hours, the harvested cells were washed with lysis buffer (50 mM sodium phosphate (pH 8.0), 300 mM NaCl, 10 mM imidazole), resuspended in the same buffer, and disrupted by sonication. The crude extract obtained after centrifugation was applied to a column of Ni-NTA gel (Qiagen) and purified according to the product manual. The recombinant BGluT protein was eluted with 250 mM imidazole in the lysis buffer. The purified protein was dialyzed against 20 mM Tris-HCl (pH 7.5), mixed with glycerol to a concentration of 30% (v/v), and stored in aliquots at −70° C. until use. The protein was stable up to 4 months. Protein concentration was determined using Bradford reagent.

B1: BGluT: recombinant protein from a Synechococcus gene with pteridine glucosyltransferase activity (UDP-glucose:tetrahydrobiopterin glucosyltransferase) (protein)
chain: MTAHRFLFVSTPVGPLGSGRGGGVELTLPNLAKALTQRGHQVSVLAPAGSVLPDLPLETVPGTWQSTAQSHGRATPAEIPAESVLARLWDRAHQQQADFDLILNFAYDWLPLYLTPFFKTPVAHLISMGSLSEVMDQAIATSLDRYPGSIAVHSLAQAATFPFGDRCLCIGNALDLAAYGFNPEPEPVLGWVGRIAPEKGLEDAIQAAQQAGLPLRVWGALTEPDYWQRLQQQFGDRAVSYQGFVSTDELQRGLGRCQGLLMTPKWVEAFGNVAIEALACGLPVIAYARGGPLEIIEQGKSGWLVEPDQQAALVNAIGQLSSLDRAYCRAQAEARFSLAAMGQRLEAWLLPLLSRARGF
modifications: Synechococcus PCC7942
- amount of BGluT above which the product is not increased any more ([1]; 100 μl reaction mixture, 1 μM tetrahydrobiopterin, 10 minutes, FIG. 2): more than 1 μg
- conversion of tetrahydrobiopterin to its glucosylated product ([1]; even in the presence of dihydrobiopterin, FIG. 1): specifically convert only all of tetrahydrobiopterin to its glucosylated product
- time the protein was stable [2]: up to 4 months
